Legend:
Assay in all cases: filter
[1] = target: T1, human neutrophil elastase (hNE) (Homo sapiens) (UniProt P08246); settings: 5-BrdU replaces T
T1 sequence: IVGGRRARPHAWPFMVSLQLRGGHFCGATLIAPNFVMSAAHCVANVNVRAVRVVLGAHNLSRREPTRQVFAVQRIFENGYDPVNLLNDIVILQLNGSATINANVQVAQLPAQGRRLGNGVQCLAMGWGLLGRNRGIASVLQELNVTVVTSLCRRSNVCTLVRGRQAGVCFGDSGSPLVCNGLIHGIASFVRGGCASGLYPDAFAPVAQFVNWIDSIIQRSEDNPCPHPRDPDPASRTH

Plasmin = Plasmin (UniProt P00747+P00747); settings: 5-BrdU replaces T; apparent photocrosslink KD; plateau 50%
Sequence of Plasmin (P00747 97-580, chain 1 of 2): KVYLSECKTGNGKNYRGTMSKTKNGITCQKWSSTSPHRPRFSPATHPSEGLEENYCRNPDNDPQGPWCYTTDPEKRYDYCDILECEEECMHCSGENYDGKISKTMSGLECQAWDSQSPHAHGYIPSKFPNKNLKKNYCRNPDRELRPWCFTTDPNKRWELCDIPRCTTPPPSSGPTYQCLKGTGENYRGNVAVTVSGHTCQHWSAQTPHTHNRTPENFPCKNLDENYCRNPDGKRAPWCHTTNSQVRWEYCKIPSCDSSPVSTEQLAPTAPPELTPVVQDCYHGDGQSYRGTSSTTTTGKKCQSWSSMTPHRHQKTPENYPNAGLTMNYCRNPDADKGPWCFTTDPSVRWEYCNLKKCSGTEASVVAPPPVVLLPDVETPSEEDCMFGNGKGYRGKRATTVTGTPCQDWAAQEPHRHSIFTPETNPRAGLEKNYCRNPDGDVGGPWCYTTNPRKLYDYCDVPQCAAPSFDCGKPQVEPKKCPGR
Sequence of Plasmin (P00747 581-810, chain 2 of 2): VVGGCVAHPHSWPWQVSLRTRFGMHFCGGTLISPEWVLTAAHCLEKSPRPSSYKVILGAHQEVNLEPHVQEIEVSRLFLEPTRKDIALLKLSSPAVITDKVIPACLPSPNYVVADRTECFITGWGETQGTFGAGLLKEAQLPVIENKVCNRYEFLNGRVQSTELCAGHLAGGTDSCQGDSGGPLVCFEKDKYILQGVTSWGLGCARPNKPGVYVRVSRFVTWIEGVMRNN

Endostatin = target: T2, Endostatin (UniProt P39060); settings: 5-BrdU replaces T; apparent photocrosslink KD; plateau 75%
T2 sequence: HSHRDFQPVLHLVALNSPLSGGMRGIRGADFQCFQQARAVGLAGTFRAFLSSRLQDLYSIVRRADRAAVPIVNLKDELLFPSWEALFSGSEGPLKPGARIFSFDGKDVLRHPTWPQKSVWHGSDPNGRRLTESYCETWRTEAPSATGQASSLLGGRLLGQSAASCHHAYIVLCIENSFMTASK

[2] = target: T3, UDP-glucuronosyl transferase (UGT) 1A1 (UniProt P22309); settings: 5-BrdU replaces T; apparent photocrosslink KD; plateau 70%
T3 sequence: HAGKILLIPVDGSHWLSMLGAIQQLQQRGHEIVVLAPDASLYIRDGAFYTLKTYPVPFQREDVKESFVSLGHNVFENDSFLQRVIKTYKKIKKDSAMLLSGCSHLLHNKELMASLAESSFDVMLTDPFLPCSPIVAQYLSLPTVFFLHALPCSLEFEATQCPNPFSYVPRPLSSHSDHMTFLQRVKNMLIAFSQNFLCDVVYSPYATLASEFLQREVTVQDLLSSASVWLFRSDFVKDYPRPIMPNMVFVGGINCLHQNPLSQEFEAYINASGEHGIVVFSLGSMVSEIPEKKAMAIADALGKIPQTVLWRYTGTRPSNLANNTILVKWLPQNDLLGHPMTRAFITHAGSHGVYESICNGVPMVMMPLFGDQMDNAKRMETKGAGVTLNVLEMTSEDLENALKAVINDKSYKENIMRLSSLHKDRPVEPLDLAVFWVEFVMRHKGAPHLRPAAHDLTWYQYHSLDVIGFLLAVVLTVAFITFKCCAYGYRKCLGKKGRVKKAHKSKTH

[3] = target: T4, L-Selectin (Homo sapiens) (UniProt P14151); settings: 5-BrdU replaces T; apparent photocrosslink KD; plateau 25%
T4 sequence: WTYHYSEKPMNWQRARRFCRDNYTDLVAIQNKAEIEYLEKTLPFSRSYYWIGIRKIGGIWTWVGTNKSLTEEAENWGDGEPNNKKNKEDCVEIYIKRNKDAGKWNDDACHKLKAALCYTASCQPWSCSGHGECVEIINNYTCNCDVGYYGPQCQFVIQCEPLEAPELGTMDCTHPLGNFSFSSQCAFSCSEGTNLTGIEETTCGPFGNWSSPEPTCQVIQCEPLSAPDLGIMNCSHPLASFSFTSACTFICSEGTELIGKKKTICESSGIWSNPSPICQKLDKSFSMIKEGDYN

Factor H = Factor H (UniProt P08603); settings: 5-BrdU replaces T; apparent photocrosslink KD; plateau 65%; abstract prints Factor II
Sequence of Factor H (P08603 19-1231): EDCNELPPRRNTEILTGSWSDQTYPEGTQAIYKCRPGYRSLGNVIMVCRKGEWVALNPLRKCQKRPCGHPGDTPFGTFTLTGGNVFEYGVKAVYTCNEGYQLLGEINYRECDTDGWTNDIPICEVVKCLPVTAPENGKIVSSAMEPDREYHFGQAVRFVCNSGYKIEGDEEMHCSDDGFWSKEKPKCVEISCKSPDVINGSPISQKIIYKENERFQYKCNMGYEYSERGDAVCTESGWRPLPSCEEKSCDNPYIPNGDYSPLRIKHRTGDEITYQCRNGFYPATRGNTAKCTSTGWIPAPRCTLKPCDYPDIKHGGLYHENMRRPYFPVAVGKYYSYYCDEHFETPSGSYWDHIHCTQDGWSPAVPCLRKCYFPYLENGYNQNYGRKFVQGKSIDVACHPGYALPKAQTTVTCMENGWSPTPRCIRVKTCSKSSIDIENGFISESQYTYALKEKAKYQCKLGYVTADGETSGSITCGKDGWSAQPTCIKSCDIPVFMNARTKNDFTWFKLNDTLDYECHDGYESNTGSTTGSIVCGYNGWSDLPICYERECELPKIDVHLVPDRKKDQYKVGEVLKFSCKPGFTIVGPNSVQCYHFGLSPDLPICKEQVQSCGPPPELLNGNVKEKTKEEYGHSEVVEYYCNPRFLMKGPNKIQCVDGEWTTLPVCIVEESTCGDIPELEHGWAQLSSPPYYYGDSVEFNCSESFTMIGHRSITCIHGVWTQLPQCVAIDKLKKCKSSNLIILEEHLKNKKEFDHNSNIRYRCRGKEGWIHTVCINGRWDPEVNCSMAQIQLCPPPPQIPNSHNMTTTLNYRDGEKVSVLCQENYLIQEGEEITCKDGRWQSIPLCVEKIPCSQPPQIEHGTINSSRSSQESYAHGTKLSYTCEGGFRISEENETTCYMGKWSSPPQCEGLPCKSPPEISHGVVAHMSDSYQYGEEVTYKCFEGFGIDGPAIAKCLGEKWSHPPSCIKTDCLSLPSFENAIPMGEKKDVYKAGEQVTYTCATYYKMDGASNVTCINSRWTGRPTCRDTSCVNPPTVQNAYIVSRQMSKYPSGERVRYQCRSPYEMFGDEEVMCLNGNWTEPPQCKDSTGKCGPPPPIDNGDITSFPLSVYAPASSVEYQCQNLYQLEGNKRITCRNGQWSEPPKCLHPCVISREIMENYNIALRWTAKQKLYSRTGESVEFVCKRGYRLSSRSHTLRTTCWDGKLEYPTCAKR

Collagen = settings: 5-BrdU replaces T; apparent photocrosslink KD; plateau 25%
Coagulation Factor XII = target: T5, Coagulation Factor XII (UniProt P00748); settings: 5-BrdU replaces T; apparent photocrosslink KD; plateau 45%
T5 sequence: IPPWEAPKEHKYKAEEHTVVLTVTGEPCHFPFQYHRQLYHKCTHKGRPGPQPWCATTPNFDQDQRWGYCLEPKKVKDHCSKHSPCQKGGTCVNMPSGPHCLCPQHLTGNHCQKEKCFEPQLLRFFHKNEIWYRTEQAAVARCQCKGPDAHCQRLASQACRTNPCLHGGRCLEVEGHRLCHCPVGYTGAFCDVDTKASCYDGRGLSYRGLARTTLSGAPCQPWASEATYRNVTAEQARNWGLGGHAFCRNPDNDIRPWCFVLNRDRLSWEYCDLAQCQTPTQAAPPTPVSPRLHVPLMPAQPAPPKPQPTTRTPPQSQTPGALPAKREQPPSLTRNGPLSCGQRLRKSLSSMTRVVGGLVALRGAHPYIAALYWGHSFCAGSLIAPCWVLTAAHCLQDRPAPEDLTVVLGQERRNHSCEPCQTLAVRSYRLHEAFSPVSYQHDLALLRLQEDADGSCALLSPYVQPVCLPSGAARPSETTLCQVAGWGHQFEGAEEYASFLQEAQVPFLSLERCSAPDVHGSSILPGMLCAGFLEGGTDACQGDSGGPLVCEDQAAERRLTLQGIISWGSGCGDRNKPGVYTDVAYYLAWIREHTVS

[4] = target: Hepatocyte Growth Factor (HGF) (UniProt P14210+P14210); settings: 5-BrdU replaces T; apparent photocrosslink KD; plateau 73%
Sequence of Hepatocyte Growth Factor (HGF) (P14210 32-494, chain 1 of 2): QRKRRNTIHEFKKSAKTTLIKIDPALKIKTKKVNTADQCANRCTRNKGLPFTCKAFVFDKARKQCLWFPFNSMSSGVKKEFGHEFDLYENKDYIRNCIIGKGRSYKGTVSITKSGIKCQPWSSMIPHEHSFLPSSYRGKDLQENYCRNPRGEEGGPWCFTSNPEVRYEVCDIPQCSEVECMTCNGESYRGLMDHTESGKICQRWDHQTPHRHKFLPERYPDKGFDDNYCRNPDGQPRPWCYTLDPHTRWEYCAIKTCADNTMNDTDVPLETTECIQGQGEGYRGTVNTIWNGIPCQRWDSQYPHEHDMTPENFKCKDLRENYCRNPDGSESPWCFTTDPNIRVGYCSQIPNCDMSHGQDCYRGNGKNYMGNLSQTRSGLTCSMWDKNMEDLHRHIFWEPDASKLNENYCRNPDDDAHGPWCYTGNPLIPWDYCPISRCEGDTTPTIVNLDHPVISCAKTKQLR
Sequence of Hepatocyte Growth Factor (HGF) (P14210 495-728, chain 2 of 2): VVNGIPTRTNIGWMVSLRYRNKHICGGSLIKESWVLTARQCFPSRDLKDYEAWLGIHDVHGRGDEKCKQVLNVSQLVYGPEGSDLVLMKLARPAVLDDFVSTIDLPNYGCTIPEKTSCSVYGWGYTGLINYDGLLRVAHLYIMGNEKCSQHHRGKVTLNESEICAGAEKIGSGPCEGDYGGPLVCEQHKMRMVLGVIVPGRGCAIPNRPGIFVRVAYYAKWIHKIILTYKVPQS

CTLA-4 Fc = CTLA-4 Fc (UniProt P16410); settings: 5-BrdU replaces T; apparent photocrosslink KD; plateau 7%
Sequence of CTLA-4 Fc (P16410 36-161): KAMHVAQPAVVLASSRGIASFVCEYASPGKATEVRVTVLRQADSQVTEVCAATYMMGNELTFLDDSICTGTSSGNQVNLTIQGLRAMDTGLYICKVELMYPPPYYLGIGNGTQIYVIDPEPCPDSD

Kininogen = target: T6, Kininogen (UniProt P01042); settings: 5-BrdU replaces T; apparent photocrosslink KD; plateau 64%
T6 sequence: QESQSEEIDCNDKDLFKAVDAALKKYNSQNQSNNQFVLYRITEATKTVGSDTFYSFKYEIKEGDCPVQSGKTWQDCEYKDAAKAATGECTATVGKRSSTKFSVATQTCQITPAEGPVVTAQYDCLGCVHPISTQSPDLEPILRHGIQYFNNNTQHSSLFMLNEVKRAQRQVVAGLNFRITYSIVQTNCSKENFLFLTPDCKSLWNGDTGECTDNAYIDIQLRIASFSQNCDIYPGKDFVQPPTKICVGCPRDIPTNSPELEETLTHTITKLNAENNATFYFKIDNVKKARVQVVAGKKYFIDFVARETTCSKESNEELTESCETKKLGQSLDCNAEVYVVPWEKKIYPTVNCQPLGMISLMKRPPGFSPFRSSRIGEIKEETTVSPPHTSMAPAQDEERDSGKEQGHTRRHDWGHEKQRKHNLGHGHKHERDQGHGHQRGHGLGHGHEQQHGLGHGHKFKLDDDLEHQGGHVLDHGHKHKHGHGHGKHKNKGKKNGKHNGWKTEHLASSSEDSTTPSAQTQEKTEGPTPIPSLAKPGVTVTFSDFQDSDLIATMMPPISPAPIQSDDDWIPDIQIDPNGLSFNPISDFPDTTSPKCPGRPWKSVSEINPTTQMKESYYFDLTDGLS

[5] = target: alpha-thrombin (Homo sapiens) (UniProt P00734+P00734); settings: 5-BrdU replaces T, apparent photocrosslink KD
IGFBP-3 = IGFBP-3 (UniProt P17936); settings: 5-BrdU replaces T; apparent photocrosslink KD; plateau 52%
Sequence of IGFBP-3 (P17936 28-291): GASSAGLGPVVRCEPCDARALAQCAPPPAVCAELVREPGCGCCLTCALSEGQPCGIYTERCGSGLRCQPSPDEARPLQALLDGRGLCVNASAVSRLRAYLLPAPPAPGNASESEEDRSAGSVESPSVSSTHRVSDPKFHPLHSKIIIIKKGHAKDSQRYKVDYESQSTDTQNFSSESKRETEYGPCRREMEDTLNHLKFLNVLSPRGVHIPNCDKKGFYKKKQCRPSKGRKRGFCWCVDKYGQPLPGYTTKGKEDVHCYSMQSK

Thrombopoietin (Tpo) = Thrombopoietin (Tpo) (UniProt P40225); settings: 5-BrdU replaces T; apparent photocrosslink KD; plateau 50%
Sequence of Thrombopoietin (Tpo) (P40225 22-353): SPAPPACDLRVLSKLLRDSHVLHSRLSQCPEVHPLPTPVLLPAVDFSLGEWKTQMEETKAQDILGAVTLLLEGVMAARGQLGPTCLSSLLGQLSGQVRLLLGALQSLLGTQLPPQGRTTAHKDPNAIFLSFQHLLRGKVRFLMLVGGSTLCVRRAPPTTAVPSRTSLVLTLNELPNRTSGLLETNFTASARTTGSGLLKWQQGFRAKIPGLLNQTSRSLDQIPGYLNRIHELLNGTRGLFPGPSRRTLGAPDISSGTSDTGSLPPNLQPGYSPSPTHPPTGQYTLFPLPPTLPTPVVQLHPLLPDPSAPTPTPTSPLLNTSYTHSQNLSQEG

[6] = target: Transforming Growth Factor beta1 (TGF-beta1) (UniProt P01137); settings: 5-BrdU replaces T, apparent photocrosslink KD
Sequence of Transforming Growth Factor beta1 (TGF-beta1) (P01137 279-390): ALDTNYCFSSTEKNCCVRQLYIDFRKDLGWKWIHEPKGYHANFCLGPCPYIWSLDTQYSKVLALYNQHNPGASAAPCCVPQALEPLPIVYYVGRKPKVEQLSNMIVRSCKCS

Serum Amyloid P = Serum Amyloid P (UniProt P02743); settings: 5-BrdU replaces T; apparent photocrosslink KD; plateau 55%
Sequence of Serum Amyloid P (P02743 20-223): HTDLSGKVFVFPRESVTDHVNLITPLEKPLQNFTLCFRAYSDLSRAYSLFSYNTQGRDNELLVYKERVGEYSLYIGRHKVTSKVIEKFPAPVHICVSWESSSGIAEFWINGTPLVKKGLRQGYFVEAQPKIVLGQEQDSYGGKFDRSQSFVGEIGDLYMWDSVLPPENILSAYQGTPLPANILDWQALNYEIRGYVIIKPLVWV

Coagulation Factor IX = Coagulation Factor IX (UniProt P00740); settings: 5-BrdU replaces T; apparent photocrosslink KD; plateau 75%
Interleukin-7 = target: T7, Interleukin-7 (UniProt P13232); settings: 5-BrdU replaces T; apparent photocrosslink KD; plateau 50%
T7 sequence: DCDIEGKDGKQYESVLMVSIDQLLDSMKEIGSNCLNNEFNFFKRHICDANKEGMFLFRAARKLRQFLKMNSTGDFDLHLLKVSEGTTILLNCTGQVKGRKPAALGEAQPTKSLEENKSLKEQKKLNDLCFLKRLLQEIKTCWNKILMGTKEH

ATATATATGGGAGGACGATGCGGCAACCCACCACTCTATCTTTCCCATAACTGCAGACGACGAGCGGGAAAAAAAA [hNE pool 2 clone 43]
Kd ([1]; apparent photocrosslink KD, plateau 27%, rate 0.14): 61 nM

ATATATATGGGAGGACGATGCGGCAACCCTGACACCACGTTGTTTCTCCTTTTGGGGTAACCGCAGACGACGAGCGGGAAAAAAAA [Plasmin pool 050 clone 25]
Kd (Plasmin): 78 nM

ATATATATGGGAGGACGATGCGGCACAATGAAGTCACTCTTGACGCTTGTATTCAGACGACGAGCGGGAAAAAAAA [Endostatin pool 92 clone 4]
Kd (Endostatin): 2.7 nM

ATATATATGGGAGGACGATGCGGCACCTGATTTCTACCCTTTACTTTGTGTGGCAGACGACGAGCGGGAAAAAAAA [UGT 1A1 pool 319 clone 73]
Kd [2]: 22 nM

ATATATATGGGAGGACGATGCGGCCGGTTCACGTGCACCATCCGTGTGCTAGACAGACGACGAGCGGGAAAAAAAA [L-Selectin pool 048 clone 21]
Kd [3]: 7 nM

ATATATATGGGAGGACGATGCGGCCTCATAAAGTTACATCGGCAATTCTTCTCCAGACGACGAGCGGGAAAAAAAA [Factor H pool 94 clone 12]
Kd (Factor H): 14 nM

ATATATATGGGAGGACGATGCGGCTACTCCTCCTTAACCCGGGTCTTGTGGCCCAGACGACGAGCGGGAAAAAAAA [Collagen pool 100 clone 36]
Kd (Collagen): 0.75 nM

ATATATATGGGAGGACGATGCGGCTGCGTGACAGTTATACTGTTATTGGTCTTCAGACGACGAGCGGGAAAAAAAA [Factor XII pool 89 clone 51]
Kd (Coagulation Factor XII): 53 nM

ATATATATGGGAGGACGATGCGGGACGACTAGCCTAGTGCCCTTACGATCACCCAGACGACGAGCGGGAAAAAAAA [HGF pool 107 clone 23]
Kd [4]: 0.53 nM

ATATATATGGGAGGACGATGCGGGACGCTAATACTTCTGGAGTGGAACGGTTTCAGACGACGAGCGGGAAAAAAAA [CTLA-4 Fc pool 101 clone 60]
Kd (CTLA-4 Fc): 8 nM

ATATATATGGGAGGACGATGCGGGACGCTAGTACCCTGGCTGGCTTGGTTGGGCAGACGACGAGCGGGAAAAAAAA [Kininogen pool 046 clone 31]
Kd (Kininogen): 7 nM

ATATATATGGGAGGACGATGCGGGAGGAGCTGATGGGTGGTGAGGTTGGCCAGACGACGAGCGGGAAAAAAAA [Thrombin pool 5 clone 51]
Kd ([5]; plateau 6%, rate 0.4): 0.04 nM

ATATATATGGGAGGACGATGCGGGCAAAGTGTTATTTCTTGATCTGTTTCACCCAGACGACGAGCGGGAAAAAAAA [IGFBP-3 pool 112 clone 65]
Kd (IGFBP-3): 6 nM

ATATATATGGGAGGACGATGCGGGCACACCCAACCTTGCTTCTTCAATCTAATCTCCACTTTGCAGACGACGAGCGGGAAAAAAAA [Tpo pool 059 clone 34]
Kd (Thrombopoietin (Tpo)): 64 nM

ATATATATGGGAGGACGATGCGGGCACATCACTCTATCATTTGCTACGGTACCGGAGTGAGTCCAGACGACGAGCGGGAAAAAAAA [hNE pool 2 clone 18]
Kd ([1]; apparent KD from photocrosslinking 308 nm, plateau 37%, rate 0.72 J-1 cm2): 21 nM

ATATATATGGGAGGACGATGCGGGCACCTTTCTTACATCTTGGCTTCATTCTTGCACCATTGGCAGACGACGAGCGGGAAAAAAAA [TGF-beta1 pool 015 clone 83]
Kd ([6]; plateau 80%, rate 0.82): 4.3 nM

ATATATATGGGAGGACGATGCGGGCAGCAACCTACCTTACCTTCCCCTAGCCTACCTTATCCCCAGACGACGAGCGGGAAAAAAAA [TGF-beta1 pool 015 clone 82]
Kd ([6]; plateau 100%, rate 0.54): 7.1 nM

ATATATATGGGAGGACGATGCGGGCAGGACGGACAGCAAGGGGTGAGCACGAGCAGACGACGAGCGGGAAAAAAAA [Thrombin pool 5 clone 75]
Kd ([5]; plateau 62%): 110 nM

ATATATATGGGAGGACGATGCGGGCAGTAGGTTGGGTAGGGTGGTCTGCTCAGACGACGAGCGGGAAAAAAAA [Thrombin pool 5 clone 4]
Kd ([5]; plateau 25%, rate 0.4): 0.03 nM

ATATATATGGGAGGACGATGCGGGCCAATCTGTCTTCTTTCCATCCTTATGATCAGACGACGAGCGGGAAAAAAAA [hNE pool 2 clone 73]
Kd ([1]; apparent photocrosslink KD, plateau 32%, rate 0.28): 29 nM

ATATATATGGGAGGACGATGCGGGCCGACTCTGAGGAAAAGGTTTTATGTATGGCTACCCCTGCAGACGACGAGCGGGAAAAAAAA [Serum Amyloid P pool 051 clone 50]
Kd (Serum Amyloid P): 0.54 nM

ATATATATGGGAGGACGATGCGGGCGGTTGGCGTGGTTGGAAATGTCCCGTCAGACGACGAGCGGGAAAAAAAA [Thrombin pool 5 clone 77]
Kd ([5]; plateau 9%, rate 0.64, Table 7 sequence differs from listing (GGTTGCTGTGG vs ggttggcgtgg)): 0.05 nM

ATATATATGGGAGGACGATGCGGGCGTCTGGGATTTGGACTTCTTCGCTAGCTCAGACGACGAGCGGGAAAAAAAA [Factor IX pool 87 clone 50]
Kd (Coagulation Factor IX): 6.2 nM

ATATATATGGGAGGACGATGCGGGCTGAAAGGAAACGGACGATTGAGCTTCCCCTTACCTCTCCAGACGACGAGCGGGAAAAAAAA [IL-7 pool 042 clone 5]
Kd (Interleukin-7): 11 nM

From patent US20030054360
